Measured values from publication PMC4705439 (Kidney international, 2016).
Positions count from the first letter of the chain named. Names may count otherwise.

Assays:
[1] = target: the molecule itself; experiment: non-reducing SDS-PAGE with immunoblot
[2] = target: T1, Peroxiredoxin 6 (PRDX6), native, human kidney (human (endogenous in human kidney)), P30041; experiment: non-reducing SDS-PAGE with immunoblot; settings: remark: other sources report otherwise
T1 chain: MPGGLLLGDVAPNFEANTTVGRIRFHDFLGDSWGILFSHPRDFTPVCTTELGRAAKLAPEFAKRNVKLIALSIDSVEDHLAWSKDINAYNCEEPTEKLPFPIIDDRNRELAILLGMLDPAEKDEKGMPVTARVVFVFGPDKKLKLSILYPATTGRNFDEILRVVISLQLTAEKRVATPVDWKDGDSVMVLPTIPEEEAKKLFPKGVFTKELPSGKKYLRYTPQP

[3] = target: the molecule itself; experiment: non-reducing SDS-PAGE with Coomassie stain

B1: Peroxiredoxin 6 (PRDX6), native, mouse kidney (natural protein, mouse (endogenous in mouse kidney), UniProt O08709 1-224, looked up)
chain: MPGGLLLGDEAPNFEANTTIGRIRFHDFLGDSWGILFSHPRDFTPVCTTELGRAAKLAPEFAKRNVKLIALSIDSVEDHLAWSKDINAYNGETPTEKLPFPIIDDKGRDLAILLGMLDPVEKDDNNMPVTARVVFIFGPDKKLKLSILYPATTGRNFDEILRVVDSLQLTGTKPVATPVDWKKGESVMVVPTLSEEEAKQCFPKGVFTKELPSGKKYLRYTPQP
[1]
  stoichiometry N: 2

B2: Peroxiredoxin 6 (PRDX6), native, human kidney, P30041 1-224 (natural protein)
chain: T1 chain
[2]
  stoichiometry N: 2

B3: N-terminal histidine-tagged PRDX6 with cysteine 47 changed to alanine (HisPRDX6-C47A) (natural protein, UniProt P30041 1-224, looked up)
chain: T1 chain with C47A
[3]
  stoichiometry N: 2
